Our source for the Kd values is paper PMC7464098, “Conformational Equilibrium of NADPH–Cytochrome P450 Oxidoreductase Is Essential for Heme Oxygenase Reaction” (Antioxidants, 2020).

What all share (details): both partners purified
Assay [1] deals with rat CPR mutant with a disulfide bridge Cys147–Cys514 (closed-form stabilized CPR) (rat, UniProt P00388 58-678, Asp147 substituted with cysteine | Arg514 substituted with cysteine | Cys136Ala …, disulfide bond between Cys147 and Cys514). The assay can be described thus: AUC; sedimentation equilibrium, equimolar mixtures (15 μM each for 147CC514; concentrations for rCPR and IAM/DTT-treated 147CC514 not told), 25 °C, 0.1 M potassium phosphate pH 7.4, 15,000 rpm, absorbance at 455 nm; apparent affinity.

Assay [2] concerns the target T1, rat NADPH–cytochrome P450 oxidoreductase (soluble form) (rat, UniProt P00388 58-678).
T1 construct: Holds FAD and FMN; The limit Met1-Ile57 is printed in the sentence on the 147CC514 cDNA; also called rCPR; CPR; source: E. coli, purified
T1 sequence (looked up): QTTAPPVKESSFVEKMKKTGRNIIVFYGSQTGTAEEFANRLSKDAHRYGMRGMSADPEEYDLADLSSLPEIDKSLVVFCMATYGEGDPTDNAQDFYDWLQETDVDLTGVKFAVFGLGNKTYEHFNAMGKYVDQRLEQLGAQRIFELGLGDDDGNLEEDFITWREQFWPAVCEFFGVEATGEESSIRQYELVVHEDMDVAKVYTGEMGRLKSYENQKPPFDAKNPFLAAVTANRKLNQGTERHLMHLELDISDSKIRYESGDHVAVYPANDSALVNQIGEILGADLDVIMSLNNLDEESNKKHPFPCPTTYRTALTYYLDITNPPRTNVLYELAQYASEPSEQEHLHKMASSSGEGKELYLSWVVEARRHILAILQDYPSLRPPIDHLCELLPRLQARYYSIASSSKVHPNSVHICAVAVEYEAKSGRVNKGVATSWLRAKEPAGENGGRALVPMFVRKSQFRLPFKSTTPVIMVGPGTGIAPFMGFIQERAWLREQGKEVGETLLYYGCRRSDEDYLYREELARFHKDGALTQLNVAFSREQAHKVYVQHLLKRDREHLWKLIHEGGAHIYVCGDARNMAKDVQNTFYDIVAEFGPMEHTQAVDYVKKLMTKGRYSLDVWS
The assay is described as above.

The target of assay [3] is IAM/DTT-treated 147CC514 (rat, UniProt P00388 58-678, Asp147 substituted with cysteine | Arg514 substituted with cysteine | Cys136Ala …, disulfide bond between Cys147 and Cys514 cleaved, both cysteine residues alkylated (2-iodoacetamide)). The description is as above.
Assay [4] has as its target T2, rat CPR mutant lacking Thr236 to Glu239 of the hinge (open-form stabilized CPR) (rat, UniProt P00388 58-678, ΔTGEE (from Thr236 to Glu239 removed)).
T2 construct: rat NADPH–cytochrome P450 reductase, soluble form without the membrane-spanning region (Met1-Ile57), four consecutive hinge residues Thr236 to Glu239 removed; Holds FAD and FMN; also called ΔTGEE; source: E. coli, purified
T2 sequence (looked up): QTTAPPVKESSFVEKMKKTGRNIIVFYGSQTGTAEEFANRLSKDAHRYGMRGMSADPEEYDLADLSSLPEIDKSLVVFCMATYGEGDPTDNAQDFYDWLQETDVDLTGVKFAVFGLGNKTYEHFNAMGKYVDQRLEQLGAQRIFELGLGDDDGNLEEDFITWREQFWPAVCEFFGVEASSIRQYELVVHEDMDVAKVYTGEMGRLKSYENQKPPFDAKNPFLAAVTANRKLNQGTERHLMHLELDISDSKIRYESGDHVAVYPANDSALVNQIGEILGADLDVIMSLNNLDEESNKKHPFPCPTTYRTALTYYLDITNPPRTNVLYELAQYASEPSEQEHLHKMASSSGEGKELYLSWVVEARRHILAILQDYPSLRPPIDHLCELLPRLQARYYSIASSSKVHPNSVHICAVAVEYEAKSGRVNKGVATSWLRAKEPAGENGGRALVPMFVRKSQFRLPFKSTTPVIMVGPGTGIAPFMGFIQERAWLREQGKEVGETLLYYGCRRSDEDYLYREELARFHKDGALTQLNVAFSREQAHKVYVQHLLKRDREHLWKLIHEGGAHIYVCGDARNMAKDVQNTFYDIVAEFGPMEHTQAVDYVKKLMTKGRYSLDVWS
The experiment in a line: AUC; sedimentation equilibrium, 5 μM heme–rHO-1 plus 5 μM CPR sample, 25 °C, 0.1 M potassium phosphate pH 7.4, 15,000 rpm, absorbance at 455 nm; fit to HO-1 + CPR ⇄ HO-1•CPR.

B1: heme–rat heme oxygenase-1 complex (soluble form) (enzyme)
chain: MERPQLDSMSQDLSEALKEATKEVHIRAENSEFMRNFQKGQVSREGFKLVMASLYHIYTALEEEIERNKQNPVYAPLYFPEELHRRAALEQDMAFWYGPHWQEAIPYTPATQHYVKRLHEVGGTHPELLVAHAYTRYLGDLSGGQVLKKIAQKAMALPSSGEGLAFFTFPSIDNPTKFKQLYRARMNTLEMTPEVKHRVTEEAKTAFLLNIELFEELQALLTEEHKDQSPSQTEFLRQRPASLVQDTTSAETPRGKSQISTSSSQTP
notes: rat heme oxygenase-1 (HO-1), soluble form made by removing the membrane-spanning region; also called heme–rHO-1; heme–HO-1; source: E. coli, purified; reconstituted with 1.2 equiv. of heme, hydroxyapatite column
Regarding B1, the Kd was determined as 111 ± 5 µM in assay [1], 62.1 ± 1.7 µM in assay [2], 65.5 ± 17 µM in assay [3] and 0.178 ± 0.077 µM in assay [4].
